Consider nine sequences from the supplement of paper PMC5998384.

The test system of series [1] is HeLa Kyoto. The experiment in a line: solubility in G1/S (NP-40 vs SDS abundance) (log2 ratio); higher = more soluble. The following applies: cell cycle stage: G1/S.
In series [2] the test system is HeLa Kyoto. The experiment in a line: melting temperature (median over replicates), in situ; higher = more thermally stable.
In series [3] the test system is HeLa Kyoto. The experiment in a line: solubility change mitosis vs G1/S (difference of NP-40 vs SDS log2 ratios) (log2 ratio difference); higher = more soluble in mitosis.
Series [4] relates to HeLa Kyoto. The experiment in a line: thermal stability score vs G1/S (z-score of summed log2 fold changes over temperatures); higher = more thermally stable than in G1/S.
Where [5] appears, read: cell cycle stage: early G1 (4.5 h after nocodazole release).
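Wherever melting temperature (median over replicates), in situ is given: HeLa Kyoto cells synchronized by double thymidine or nocodazole block, proteins quantified by TMT10plex mass spectrometry, three independent biological replicates.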
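Wherever solubility change mitosis vs G1/S (difference of NP-40 vs SDS log2 ratios) is given: synchronized HeLa Kyoto cells (double thymidine block for G1/S, nocodazole release for mitosis), protein amounts in NP-40 versus SDS lysates quantified by mass spectrometry, three biological replicates.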
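Wherever solubility in G1/S (NP-40 vs SDS abundance) is given: HeLa Kyoto cells arrested at G1/S by double thymidine block, proteins quantified by TMT10plex mass spectrometry in mild NP-40 versus SDS extracts, three biological replicates.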
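Wherever thermal stability score vs G1/S (z-score of summed log2 fold changes over temperatures) is given: synchronized HeLa Kyoto cells, proteins quantified by TMT10plex mass spectrometry, three biological replicates, mitosis taken 0.5 h after nocodazole release, G1/S directly after double thymidine block.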

For the sequence “MANDSPAKSLVDIDLSSLRDPAGIFELVEVVGNGTYGQVYKGRHVKTGQLAAIKVMDVTEDEEEEIKLEINMLKKYSHHRNIATYYGAFIKKSPPGHDDQLWLVMEFCGAGSITDLVKNTKGNTLKEDWIAYISREILRGLAHLHIHHVIHRDIKGQNVLLTENAEVKLVDFGVSAQLDRTVGRRNTFIGTPYWMAPEVIACDENPDATYDYRSDLWSCGITAIEMAEGAPPLCDMHPMRALFLIPRNPPPRLKSKKWSKKFFSFIEGCLVKNYMQRPSTEQLLKHPFIRDQPNERQVRIQLKDHIDRTRKKRGEKDETEYEYSGSEEEEEEVPEQEGEPSSIVNVPGESTLRRDFLRLQQENKERSEALRRQQLLQEQQLREQEEYKRQLLAERQKRIEQQKEQRRRLEEQQRREREARRQQEREQRRREQEEKRRLEELERRRKEEEERRRAEEEKRRVEREQEYIRRQLEEEQRHLEVLQQQLLQEQAMLLECRWREMEEHRQAERLQRQLQQEQAYLLSLQHDHRRPHPQHSQQPPPPQQERSKPSFHAPEPKAHYEPADRAREVEDRFRKTNHSSPEAQSKQTGRVLEPPVPSRSESFSNGNSESVHPALQRPAEPQVPVRTTSRSPVLSRRDSPLQGSGQQNSQAGQRNSTSIEPRLLWERVEKLVPRPGSGSSSGSSNSGSQPGSHPGSQSGSGERFRVRSSSKSEGSPSQRLENAVKKPEDKKEVFRPLKPADLTALAKELRAVEDVRPPHKVTDYSSSSEESGTTDEEDDDVEQEGADESTSGPEDTRAASSLNLSNGETESVKTMIVHDDVESEPAMTPSKEGTLIVRQTQSASSTLQKHKSSSSFTPFIDPRLLQISPSSGTTVTSVVGFSCDGMRPEAIRQDPTRKGSVVNVNPTNTRPQSDTPEIRKYKKRFNSEILCAALWGVNLLVGTESGLMLLDRSGQGKVYPLINRRRFQQMDVLEGLNVLVTISGKKDKLRVYYLSWLRNKILHNDPEVEKKQGWTTVGDLEGCVHYKVVKYERIKFLVIALKSSVEVYAWAPKPYHKFMAFKSFGELVHKPLLVDLTVEEGQRLKVIYGSCAGFHAVDVDSGSVYDIYLPTHIQCSIKPHAIIILPNTDGMELLVCYEDEGVYVNTYGRITKDVVLQWGEMPTSVAYIRSNQTMGWGEKAIEIRSVETGHLDGVFMHKRAQRLKFLCERNDKVFFASVRSGGSSQVYFMTLGRTSLLSW [MAP4K4]”, the “solubility in G1/S (log2)” value in series [1] was -0.155. In addition, the results for the melting temperature in series [2] (cell cycle stage: G1/S) and in series [2] (cell cycle stage: mitosis) were 51.7 °C and 51.3 °C, respectively. The “solubility change mitosis (log2)” value in series [3] was -0.0676. Moreover, the thermal stability score worked out at 0.471 in series [4] (setting [5]) and 0.408 in series [4] (cell cycle stage: mitosis).

Consider “MANEAYPCPCDIGHRLEYGGLGREVQVEHIKAYVTKSPVDAGKAVIVIQDIFGWQLPNTRYIADMISGNGYTTIVPDFFVGQEPWDPSGDWSIFPEWLKTRNAQKIDREISAILKYLKQQCHAQKIGIVGFCWGGTAVHHLMMKYSEFRAGVSVYGIVKDSEDIYNLKNPTLFIFAENDVVIPLKDVSLLTQKLKEHCKVEYQIKTFSGQTHGFVHRKREDCSPADKPYIDEARRNLIEWLNKYM [CMBL]”, for which, in series [1], the “solubility in G1/S (log2)” value stood at 0.267. The melting temperature in series [2] (cell cycle stage: G1/S) was 53.5 °C; in series [2] (cell cycle stage: mitosis), 52.8 °C. Further, the “solubility change mitosis (log2)” value in series [3] was -0.08. Besides, the thermal stability score in series [4] (setting [5]) was -0.107; in series [4] (cell cycle stage: mitosis), -0.238.

On to “MANEEDDPVVQEIDVYLAKSLAEKLYLFQYPVRPASMTYDDIPHLSAKIKPKQQKVELEMAIDTLNPNYCRSKGEQIALNVDGACADETSTYSSKLMDKQTFCSSQTTSNTSRYAAALYRQGELHLTPLHGILQLRPSFSYLDKADAKHREREAANEAGDSSQDEAEDDVKQITVRFSRPESEQARQRRVQSYEFLQKKHAEEPWVHLHYYGLRDSRSEHERQYLLCPGSSGVENTELVKSPSEYLMMLMPPSQEEEKDKPVAPSNVLSMAQLRTLPLADQIKILMKNVKVMPFANLMSLLGPSIDSVAVLRGIQKVAMLVQGNWVVKSDILYPKDSSSPHSGVPAEVLCRGRDFVMWKFTQSRWVVRKEVATVTKLCAEDVKDFLEHMAVVRINKGWEFILPYDGEFIKKHPDVVQRQHMLWTGIQAKLEKVYNLVKETMPKKPDAQSGPAGLVCGDQRIQVAKTKAQQNHALLERELQRRKEQLRVPAVPPGVRIKEEPVSEEGEEDEEQEAEEEPMDTSPSGLHSKLANGLPLGRAAGTDSFNGHPPQGCASTPVARELKAFVEATFQRQFVLTLSELKRLFNLHLASLPPGHTLFSGISDRMLQDTVLAAGCKQILVPFPPQTAASPDEQKVFALWESGDMSDQHRQVLLEIFSKNYRVRRNMIQSRLTQECGEDLSKQEVDKVLKDCCVSYGGMWYLKGTVQS [POLR3E]”, for which the “solubility in G1/S (log2)” value in series [1] was determined as 0.128. For the same sequence, the melting temperature in series [2] (cell cycle stage: G1/S) was found to be 49.8 °C; in series [2] (cell cycle stage: mitosis), 49.9 °C. The “solubility change mitosis (log2)” value in series [3] is -0.0491. Further, the thermal stability score in series [4] (setting [5]) was 0.337; in series [4] (cell cycle stage: mitosis), 0.588.

For “MANSGCKDVTGPDEESFLYFAYGSNLLTERIHLRNPSAAFFCVARLQDFKLDFGNSQGKTSQTWHGGIATIFQSPGDEVWGVVWKMNKSNLNSLDEQEGVKSGMYVVIEVKVATQEGKEITCRSYLMTNYESAPPSPQYKKIICMGAKENGLPLEYQEKLKAIEPNDYTGKVSEEIEDIIKKGETQTL [GGCT]”, the “solubility in G1/S (log2)” value in series [1] was found to be 0.302. Further, the melting temperature in series [2] (cell cycle stage: G1/S) is 55.4 °C; in series [2] (cell cycle stage: mitosis), 55.3 °C. For the same sequence, in series [3], the “solubility change mitosis (log2)” value is -0.0992. For the same sequence, the thermal stability score was -0.47 in series [4] (setting [5]) and -3.22 in series [4] (cell cycle stage: mitosis).

On to “MANVGLQFQASAGDSDPQSRPLLLLGQLHHLHRVPWSHVRGKLQPRVTEELWQAALSTLNPNPTDSCPLYLNYATVAALPCRVSRHNSPSAAHFITRLVRTCLPPGAHRCIVMVCEQPEVFASACALARAFPLFTHRSGASRRLEKKTVTVEFFLVGQDNGPVEVSTLQCLANATDGVRLAARIVDTPCNEMNTDTFLEEINKVGKELGIIPTIIRDEELKTRGFGGIYGVGKAALHPPALAVLSHTPDGATQTIAWVGKGIVYDTGGLSIKGKTTMPGMKRDCGGAAAVLGAFRAAIKQGFKDNLHAVFCLAENSVGPNATRPDDIHLLYSGKTVEINNTDAEGRLVLADGVSYACKDLGADIILDMATLTGAQGIATGKYHAAVLTNSAEWEAACVKAGRKCGDLVHPLVYCPELHFSEFTSAVADMKNSVADRDNSPSSCAGLFIASHIGFDWPGVWVHLDIAAPVHAGERATGFGVALLLALFGRASEDPLLNLVSPLGCEVDVEEGDLGRDSKRRRLV [NPEPL1]”, for which the “solubility in G1/S (log2)” value in series [1] stood at 0.106. In addition, the melting temperature was 58.3 °C in series [2] (cell cycle stage: G1/S) and 58.8 °C in series [2] (cell cycle stage: mitosis). The “solubility change mitosis (log2)” value in series [3] is -0.0373. Also, the thermal stability score in series [4] (setting [5]) is -4.2; in series [4] (cell cycle stage: mitosis), -3.53.

As for “MAPGQLALFSVSDKTGLVEFARNLTALGLNLVASGGTAKALRDAGLAVRDVSELTGFPEMLGGRVKTLHPAVHAGILARNIPEDNADMARLDFNLIRVVACNLYPFVKTVASPGVTVEEAVEQIDIGGVTLLRAAAKNHARVTVVCEPEDYVVVSTEMQSSESKDTSLETRRQLALKAFTHTAQYDEAISDYFRKQYSKGVSQMPLRYGMNPHQTPAQLYTLQPKLPITVLNGAPGFINLCDALNAWQLVKELKEALGIPAAASFKHVSPAGAAVGIPLSEDEAKVCMVYDLYKTLTPISAAYARARGADRMSSFGDFVALSDVCDVPTAKIISREVSDGIIAPGYEEEALTILSKKKNGNYCVLQMDQSYKPDENEVRTLFGLHLSQKRNNGVVDKSLFSNVVTKNKDLPESALRDLIVATIAVKYTQSNSVCYAKNGQVIGIGAGQQSRIHCTRLAGDKANYWWLRHHPQVLSMKFKTGVKRAEISNAIDQYVTGTIGEDEDLIKWKALFEEVPELLTEAEKKEWVEKLTEVSISSDAFFPFRDNVDRAKRSGVAYIAAPSGSAADKVVIEACDELGIILAHTNLRLFHH [ATIC]”, the “solubility in G1/S (log2)” value in series [1] was 0.0708. Also, the melting temperature in series [2] (cell cycle stage: G1/S) and in series [2] (cell cycle stage: mitosis) was 54.4 °C in each case. Further, the “solubility change mitosis (log2)” value in series [3] was -0.093. Further, the thermal stability score in series [4] (setting [5]) is -0.0275; in series [4] (cell cycle stage: mitosis), 1.16.

“MAPGVARGPTPYWRLRLGGAALLLLLIPVAAAQEPPGAACSQNTNKTCEECLKNVSCLWCNTNKACLDYPVTSVLPPASLCKLSSARWGVCWVNFEALIITMSVVGGTLLLGIAICCCCCCRRKRSRKPDRSEEKAMREREERRIRQEERRAEMKTRHDEIRKKYGLFKEENPYARFENN [PTTG1IP]”: the “solubility in G1/S (log2)” value in series [1] was -0.362. The same sequence gave a melting temperature in series [2] (cell cycle stage: G1/S) of 56.3 °C. In series [3], the “solubility change mitosis (log2)” value was -0.143. For the same sequence, the thermal stability score in series [4] (setting [5]) is -5.97; in series [4] (cell cycle stage: mitosis) it was -6.48.

With “MAPKGSSKQQSEEDLLLQDFSRNLSAKSSALFFGNAFIVSAIPIWLYWRIWHMDLIQSAVLYSVMTLVSTYLVAFAYKNVKFVLKHKVAQKREDAVSKEVTRKLSEADNRKMSRKEKDERILWKKNEVADYEATTFSIFYNNTLFLVVVIVASFFILKNFNPTVNYILSISASSGLIALLSTGSK [SSR3]”, the “solubility in G1/S (log2)” value in series [1] was -0.131. Also, the melting temperature amounted to 57.8 °C in series [2] (cell cycle stage: G1/S) and 57.2 °C in series [2] (cell cycle stage: mitosis). In addition, the “solubility change mitosis (log2)” value in series [3] was determined as 0.126. Moreover, the thermal stability score in series [4] (setting [5]) is 1.59; in series [4] (cell cycle stage: mitosis), -0.0489.

As for “MAPLDLDKYVEIARLCKYLPENDLKRLCDYVCDLLLEESNVQPVSTPVTVCGDIHGQFYDLCELFRTGGQVPDTNYIFMGDFVDRGYYSLETFTYLLALKAKWPDRITLLRGNHESRQITQVYGFYDECQTKYGNANAWRYCTKVFDMLTVAALIDEQILCVHGGLSPDIKTLDQIRTIERNQEIPHKGAFCDLVWSDPEDVDTWAISPRGAGWLFGAKVTNEFVHINNLKLICRAHQLVHEGYKFMFDEKLVTVWSAPNYCYRCGNIASIMVFKDVNTREPKLFRAVPDSERVIPPRTTTPYFL [PPP6C]”, the “solubility in G1/S (log2)” value in series [1] is -0.00442. Also, the figures for the melting temperature in series [2] (cell cycle stage: G1/S) and in series [2] (cell cycle stage: mitosis) were 53.7 °C and 54.1 °C, respectively. The “solubility change mitosis (log2)” value in series [3] is -0.154. Moreover, the thermal stability score in series [4] (setting [5]) is -1.68; in series [4] (cell cycle stage: mitosis), -2.31.
